These are literature values, as cited in PMC12865133, “Macrocyclic Molecular Glues for the 14‐3‐3/ChREBP Interaction: Affinity and Cooperativity in an Inverse Relationship” (Angewandte Chemie (International Ed. in English), 2025).

In the data set the target is ChREBP (Homo sapiens) (UniProt Q9NP71). The following applies: cited from earlier work.
Sequence of ChREBP (Homo sapiens) (Q9NP71 whole entry): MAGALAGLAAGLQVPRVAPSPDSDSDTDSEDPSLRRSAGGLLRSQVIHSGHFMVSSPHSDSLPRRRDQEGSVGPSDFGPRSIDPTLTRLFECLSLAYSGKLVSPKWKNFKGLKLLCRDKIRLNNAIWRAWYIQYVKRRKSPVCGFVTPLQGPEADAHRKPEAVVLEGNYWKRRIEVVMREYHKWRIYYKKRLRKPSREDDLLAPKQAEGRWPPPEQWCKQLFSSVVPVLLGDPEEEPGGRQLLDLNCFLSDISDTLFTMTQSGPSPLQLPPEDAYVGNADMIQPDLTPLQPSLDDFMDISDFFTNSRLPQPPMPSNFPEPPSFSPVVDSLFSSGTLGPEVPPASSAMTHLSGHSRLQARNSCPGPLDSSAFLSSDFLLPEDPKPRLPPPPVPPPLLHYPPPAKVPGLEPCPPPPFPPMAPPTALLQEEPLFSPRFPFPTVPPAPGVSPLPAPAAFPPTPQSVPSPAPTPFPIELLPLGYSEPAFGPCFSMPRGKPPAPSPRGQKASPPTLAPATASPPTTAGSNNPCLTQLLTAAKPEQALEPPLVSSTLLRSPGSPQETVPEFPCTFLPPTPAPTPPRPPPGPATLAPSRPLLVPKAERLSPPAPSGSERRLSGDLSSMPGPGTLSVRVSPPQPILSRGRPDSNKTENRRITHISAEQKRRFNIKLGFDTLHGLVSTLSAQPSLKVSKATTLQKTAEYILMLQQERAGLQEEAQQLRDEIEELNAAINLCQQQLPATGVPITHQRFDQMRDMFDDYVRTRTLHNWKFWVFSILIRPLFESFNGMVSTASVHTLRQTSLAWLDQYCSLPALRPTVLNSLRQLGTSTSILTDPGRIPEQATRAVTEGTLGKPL

Sequence of 14-3-3 (P31946 2-246): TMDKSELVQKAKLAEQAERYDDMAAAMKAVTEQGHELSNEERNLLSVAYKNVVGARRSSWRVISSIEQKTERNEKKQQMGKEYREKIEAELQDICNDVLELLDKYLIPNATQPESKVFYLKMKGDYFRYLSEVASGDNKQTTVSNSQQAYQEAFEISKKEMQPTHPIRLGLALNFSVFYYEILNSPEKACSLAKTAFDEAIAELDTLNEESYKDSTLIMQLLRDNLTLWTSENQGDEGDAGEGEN

One may read the Kd as the concentration at which binding is half-saturated. In the case of 14-3-3 (from UniProt P31946), the equilibrium dissociation constant (Kd) is 1500 nM.
